From publication PMC11293113, “Comparing regional brain uptake of incretin receptor agonists after intranasal delivery in CD-1 mice and the APP/PS1 mouse model of Alzheimer’s disease” (Alzheimer's Research & Therapy, 2024)
Blank lines part the entries; values can stand above or below the compound they belong to.

Legend:
[1] = Stability of IRA following IN delivery (TCA acid precipitation of brain, olfactory bulb, serum) in CD-1 mice; conditions: mouse, in vivo
Method: Blood was centrifuged at 3200 xg for 10 min. Serum (50 µl) was combined with 250 µl of BSA/LR, then combined with 300 µl of 30% TCA. Tissues were homogenized in 0.6 ml of 1% BSA/LR solution using a bead beater for 30 s at 4800 rpm twice on ice. […] Equal parts supernatant (300 µl) was mixed with an equal volume of 30% TCA. Serum and brain acid precipitated samples were centrifuged at 5400 xg for 10 min. The supernatant (S) was transferred to a new tube, leaving behind the pellet (P). The final S and P fractions for serum, olfactory bulb, and whole brain were counted separately, and the percentage of radioactivity was calculated using.
%Precip = 100 x (P)/(S + P) as described.
All biological samples were corrected for processing degradation by dividing their values by this processing control (PCon) value and multiplying by 100.

[2] = mouse, in vivo, cited from earlier work
Excerpt: Using ^125I labelled IRAs, we tested the ability of intravenously administered IRAs to cross the blood-brain barrier (BBB) in mice. […] The BBB is a functional interface between blood and brain that allows for regulated entry of circulating substrates.

[3] = mouse, in vivo
Excerpt: Initial distribution studies used male and female CD-1 mice (8–10 weeks old) purchased from Charles River Laboratories (Seattle, WA). Follow-up studies performed in male and female hemizygous APP/PS1 mice and WT littermates on a C57BL/6J background (Cat 034832-JAX) were purchased from the Mutant Mouse Resource & Research Centers (MMRRC-NIH) at approximately 2 months of age.
IRA administration followed the IN protocol outlined in Rhea et al.. Mice were anesthetized with 40% urethane intraperitoneally. […] Delicate delivery with negligible force was necessary to prevent injuring the turbinates or penetrating the cribriform plate. Tips were also examined for the presence of blood to ensure no cribriform plate rupture took place. Mice remained in the supine state for a duration of at least 30 s before being placed onto the left side.
Collection of blood occurred from the right carotid artery, and the whole brain and olfactory bulbs (Olf) were removed at 5, 15, 30, and 60 min time points after IN administration. […] Radioactivity levels were calculated for the whole brain by combining the radioactivity of each brain region and dividing by the total weights. The same was done for the neocortex (Crtx) by combining radioactivity and weights for the FC, PC, and OC. […] A 50 µl aliquot of the serum was then collected for measurement of radioactivity. Radioactivity amounts for each individual brain region, olfactory bulb, and serum were measured in a Wizard2 Automatic Gamma Counter (PerkinElmer, Waltham, MA) for 30 min. ^14C-DA5-CH samples were solubilized with Solvable (Sigma), transferred to scintillation vials containing Ecoscint (National Diagnostics) and ^14C was measured in a beta counter (TriCarb 3110TR, Perkin-Elmer). Radioactivity for ^125I was measured by counts per minute (cpm) while ^14C was measured by disintegrations per minute (dpm). […]
Injected dose percentages per ml of serum (%Inj/ml) were calculated by: […]
where Inj is dose of cpm administered and cpm/ml is the amount of radioactivity in one ml of serum. […]

[4] = in vivo; cited from earlier work
Method: IRAs are forms of these hormones modified to prolong their otherwise very short half-lives in plasma (less than 2 min).

Acid precipitation (AP%) olfactory bulb [1]: 100.9 ± 0.5% | Acid precipitation (AP%) serum [1]: 86.9 ± 1.1% | Acid precipitation (AP%) whole brain [1]: 74.7 ± 17.7% | Whole brain maximal uptake relative to the other IRAs [3]: three-fold less uptake
Compound: CC[C@H](C)[C@H](NC(=O)[C@H](Cc1ccccc1)NC(=O)[C@H](CCC(=O)O)NC(=O)[C@H](CCCCNC(=O)COCCOCCNC(=O)COCCOCCNC(=O)CC[C@H](NC(=O)CCCCCCCCCCCCCCCCC(=O)O)C(=O)O)NC(=O)[C@H](C)NC(=O)[C@H](C)NC(=O)[C@H](CCC(N)=O)NC(=O)CNC(=O)[C@H](CCC(=O)O)NC(=O)[C@H](CC(C)C)NC(=O)[C@H](Cc1ccc(O)cc1)NC(=O)[C@H](CO)NC(=O)[C@H](CO)NC(=O)[C@@H](NC(=O)[C@H](CC(=O)O)NC(=O)[C@H](CO)NC(=O)[C@@H](NC(=O)[C@H](Cc1ccccc1)NC(=O)[C@@H](NC(=O)CNC(=O)[C@H](CCC(=O)O)NC(=O)C(C)(C)NC(=O)[C@@H](N)Cc1cnc[nH]1)[C@@H](C)O)[C@@H](C)O)C(C)C)C(=O)N[C@@H](C)C(=O)N[C@@H](Cc1c[nH]c2ccccc12)C(=O)N[C@@H](CC(C)C)C(=O)N[C@H](C(=O)N[C@@H](CCCNC(=N)N)C(=O)NCC(=O)N[C@@H](CCCNC(=N)N)C(=O)NCC(=O)O)C(C)C [Semaglutide]
Rate of crossing the BBB after IV administration [2]: undetectable within an hour | Rate of whole brain uptake an hour after IV administration [2]: undetectable | Time for brain detection after systemic administration [2]: took hours for brain detection

Compound: albiglutide: incretin receptor agonist, cited IV BBB data
Rate of crossing the BBB after IV administration [2]: quickly

Compound: dulaglutide (BAF): dulaglutide bioactive fragment, single IRA, 3315 Da, purchased from GLPBIO (catalog # GC31520); 125I-labelled
Rate of crossing the BBB after IV administration [2]: quickly | Rate of whole brain uptake an hour after IV administration [2]: relatively high | Serum level following IN delivery [3]: highest levels | Sex difference in maximum uptake in hypothalamus [3]: females having less uptake

Compound: glucagon-like peptide-1 [GLP-1]
Half-life in plasma [4]: less than 2 min

Compound: liraglutide: incretin receptor agonist, cited BBB data
Time for brain detection after systemic administration [2]: took hours for brain detection

Compound: lixisenatide: incretin receptor agonist, cited IV BBB data
Rate of crossing the BBB after IV administration [2]: slow rates

Compound: tirzepatide: incretin receptor agonist, cited IV BBB data
Rate of crossing the BBB after IV administration [2]: undetectable within an hour
